Reference: paper PMC6491607, “4-Coumarate 3-hydroxylase in the lignin biosynthesis pathway is a cytosolic ascorbate peroxidase” (Nature Communications, 2019)

Columns and labels:
[1] = substrate: N[C@@H](Cc1ccc(O)cc1)C(=O)O; experiment: HPLC of product (L-DOPA), Hill fit; assay type: biochemical, Arabidopsis thaliana; conditions: H2O2 co-substrate, ascorbate 4 mM, sodium phosphate pH 6, 30 °C, hemin reconstituted
[2] = substrate: O=C1O[C@H]([C@@H](O)CO)C(O)=C1O; experiment: purified protein; conditions: H2O2 co-substrate, sodium phosphate pH 6, hemin reconstituted
[3] = substrate: O=C(O)/C=C/c1ccc(O)cc1; experiment: HPLC of product, Hill fit; assay type: biochemical, Arabidopsis thaliana; conditions: H2O2 co-substrate, ascorbate 4 mM, sodium phosphate pH 6, 30 °C, hemin reconstituted

B1: Arabidopsis C3H (4-coumarate 3-hydroxylase; cytosolic ascorbate peroxidase APX1) (Arabidopsis thaliana) (protein)
chain: MTKNYPTVSEDYKKAVEKCRRKLRGLIAEKNCAPIMVRLAWHSAGTFDCQSRTGGPFGTMRFDAEQAHGANSGIHIALRLLDPIREQFPTISFADFHQLAGVVAVEVTGGPDIPFHPGREDKPQPPPEGRLPDATKGCDHLRDVFAKQMGLSDKDIVALSGAHTLGRCHKDRSGFEGAWTSNPLIFDNSYFKELLSGEKEGLLQLVSDKALLDDPVFRPLVEKYAADEDAFFADYAEAHMKLSELGFADA
notes: full-length cDNA in pDEST17, N-terminal 6xHis tag kept, E. coli Rosetta, Ni-NTA purified, hemin reconstituted
B1 showed a K0.5 [1] of 653 ± 127 µM, a kcat [1] of 599 s–1 and a K0.5 [2] of 299 ± 63 µM. The kcat [2] was 181 s–1, the K0.5 [3] was 708 ± 154 µM and the kcat [3] was 492 s–1.
